The results in this text go back to US20040214235A1 (KIRIN BEER, published 2004).

In assay [1] the target is T1, TRAIL-R1-hFc, fusion protein of the extracellular region of human TRAIL-R1 and the Fc region of human IgG1 (human, UniProt O00220 24-239).
T1 construct: extracellular domain; Bought (ALEXIS); not shown: Fc region of human IgG1
T1 sequence (looked up): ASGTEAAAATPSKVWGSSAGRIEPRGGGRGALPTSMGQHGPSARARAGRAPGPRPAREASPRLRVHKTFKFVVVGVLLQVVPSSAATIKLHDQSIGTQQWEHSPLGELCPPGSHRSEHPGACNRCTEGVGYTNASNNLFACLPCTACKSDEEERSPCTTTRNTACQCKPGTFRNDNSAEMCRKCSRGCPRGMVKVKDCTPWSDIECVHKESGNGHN
The experiment in a line: ELISA, TRAIL-R1-hFc coated plate, hybridoma culture supernatant.

Assay [2] addresses T2, human TRAIL-R2 on the surface of cells (Colo205, U251, Jurkat, normal human hepatocytes) (human, UniProt O14763 56-440). The experiment in a line: cell-based or functional assay.
In assay [3] the target is T1, TRAIL-R1-hFc, fusion protein of the …. Nature of the assay: ELISA, TRAIL-R1-hFc coated plate, purified antibody. In general terms: An ELISA detects its analyte on a solid surface through an enzyme-linked reagent.
Assay [4] concerns the target T2, human TRAIL-R2 on the surface of cells …. The experiment in a line: cell-based or functional assay. This is another data set of the same source.
The target of assay [5] is T3, TRAIL-R2-hFc, fusion protein of the extracellular region of human TRAIL-R2 and the Fc region of human IgG1 (human, UniProt O14763 56-210).
T3 construct: extracellular domain; Bought (ALEXIS) or made with TRAIL-R2 amino acids 1 to 183 as the extracellular region; not shown: Fc region of human IgG1
Nature of the assay: SPR (BIACORE 2000), TRAIL-R2-hFc immobilised on CM5, bivalent model. As for the experimental part: TRAIL-R1-hFc or TRAIL-R2-hFc was diluted at a final concentration of 10 μg/ml with 10 mM Acetic Acid (pH 4.0), and then immobilized on a sensor chip CM5 by the amine coupling method. The immobilization conditions are as follows. NHS activation and ethanolamine blocking were performed according to the methods described in the instructions. Coupling of TRAIL-R1-hFc and that of TRAIL-R2-hFc were performed by manual injection as described in the instructions.
Each antibody of the dilution series was added in order at a flow rate of 20 μl/minute by the KINJECT method (binding for 2 minutes and dissociation for 6 minutes), thereby obtaining a sensorgram. […] Each antibody of the dilution series was added in order at a flow rate of 20 μl/minute by the KINJECT method (binding for 2 minutes and dissociation for 2 minutes), thereby obtaining sensorgrams. For each antibody, kinetics analysis was performed using each sensorgram and BIAevaluation software ver3.2 (Biacore). As a fitting model, global fitting was performed using a Bivalent model, so that the binding rate constant and the dissociation rate constant were found. In addition, a dissociation constant (Kd value) was calculated from the two constants. Also, the sensorgrams were used for fitting after the subtraction of control cells and buffer correction. In the tables, “kass” indicates the binding rate constant, “kdiss” indicates the dissociation rate constant, and “KD” indicates the dissociation constant.
(In general: SPR reads the build-up and loss of mass on a sensor chip optically.)

Assay [6] deals with T3, TRAIL-R2-hFc, fusion protein of the …. Nature of the assay: ELISA on a plate coated with TRAIL-R2-hFc, detection with HRP-labeled goat anti-human Ig kappa, absorbance at 450 nm (method of Example 18).
Description: 50 μl of the thus prepared solution was added to each well of a 96-well microplate for ELISA (Maxisorp, Nunc) and incubated for 1 hour at room temperature or at 4° C. overnight, thereby coating TRAIL-R1-hFc or TRAIL-R2-hFc to the microplate. […] Thus, a microplate having each well coated with TRAIL-R1-hFc or TRAIL-R2-hFc was prepared.
The culture supernatant of each hybridoma (50 μl) was added to each well, reaction was performed at room temperature for 1 hour, and then each well was washed three times in 0.1% Tween20-containing PBS (PBS-T). Subsequently, horseradish peroxidase-labeled goat anti-human Igκ antibodies (50 μl/well, Biosource International) were diluted 2000 times in PBS-T containing 10% Block Ace (Dainippon Pharmaceutical Co., Ltd.). 50 μl of the thus prepared solution was added to each well, and incubation was then performed at room temperature for 30 minutes; The microplate was washed three times with PBS-T, and then 50 μl of a TMB chromogenic substrate solution (DAKO) was added to each well, followed by incubation at room temperature for 20 minutes. 0.5M sulfuric acid was added (50 μl/well) to each well to stop reaction.
For the measurement of the binding activity, 96-well microplate for ELISA (Maxisorp, Nunc) to which TRAIL-R2-hFc was coated was used.

Some results are limits rather than exact numbers.

B1: human anti-TRAIL-R2 monoclonal antibody H-48-2 (antibody, IgG1, V domains shown)
VH: QLQLQESGPGLVKPSETLSLTCTVSGGSISSSSYYWGWVRQPPGKGLEWIGSIHYSGSTFYNPSLKSRVTISVDTSKNQFSLKLSSVTAADTTVYYCARQGSTVVRGVYYYGMDVWGQGTTVTVSS
VL: not shown
notes: IgG1, human kappa light chain; Hybridoma FERM BP-7599; also called H-48-2-IgG1
As for B1, in assay [1], the binding result is “no binding”.

B2: human anti-TRAIL-R2 monoclonal antibody KMTR1 (antibody, IgG1, V domains shown)
VH: EVQLLESGGGLVQPGRSLRLSCAASGFTFSSYAMSWVRQAPGKGLEWVSAISGSGGSRYYADSVKGRFTISRDNSKNTLYLQMNSLRAEDTAVYYCAKESSGWFGAFDYWGQGTLVTVSS
VL: EIVLTQSPDFQSVTPKEKVTITCRASQSIGSSLHWYQQKPDQSPKLLIKYASQSFSGVPSRFSGSGSGTDFTLTINSLEAEDAAAYYCHQSSSLPITFGQGTRLEIK
notes: IgG1, human kappa light chain
Regarding B2, in assay [2], the “LD50, Colo205 cells, 48 h, with goat anti-human IgG cross-linker” value (“LD50, Colo205 cells, 48 h” below) came to 0.04 µg/mL and the “LD50, normal human hepatocytes, 24 h, with goat anti-human IgG cross-linker” value (shortened to “LD50, normal human hepatocytes, 24 h”) is above 10 µg/mL. Further, the binding result in assay [3] was “binds”.

B3: human anti-TRAIL-R2 monoclonal antibody E-11-13 (antibody, IgG1, V domains shown)
VH: QLQLQESGPGLVKPSETLSLTCTVSGGSIISKSSYWGWIRQPPGKGLEWIGSIYYSGSTFYNPSLKSRVTISVDTSKNQFSLKLSSVTAADTAVYYCARLTVAEFDYWGQGTLVTVSS
VL: EIVLTQSPATLSLSPGERATLSCRASQSVSSFLAWYQQKPGQAPRLLIYDASNRATGIPARFSGSGSGTDFTLTISSLEPEDFAVYYCQQRSNWPLTFGPGTKVDIK
notes: Hybridoma FERM BP-7698 / BP-7770; also called E-11-3
In general, koff refers to the rate constant with which the complex falls apart. The kon is a measure of how fast the partners come together. Low readings indicate slow association, high ones fast association. Take B3: in assay [4], the “LD50, Jurkat cells, 48 h” value came to 0.1 µg/mL and the “LD50, U251 cells, 48 h” value came to 0.3 µg/mL. In addition, in assay [2], the “LD50, Colo205 cells, 48 h” value came to 0.11 µg/mL and the “LD50, normal human hepatocytes, 24 h” value is 2.8 µg/mL. In assay [5], this molecule yielded a Kd of 0.0729 nM, a koff of 3.84e-05 s⁻¹ and a kon of 527000 M⁻¹ s⁻¹.

B4: recombinant 0304 antibody of which subclass is IgG1 (antibody, V domains shown)
VH: QVQLVQSGAEMKKPGASVKVSCKTSGYTFTNYKINWVRQAPGQGLEWMGWMNPDTDSTGYPQKFQGRVTMTRNTSISTAYMELSSLRSEDTAVYYCARSYGSGSYYRDYYYGMDVWGQGTTVTVSS
VL: EIVLTQSPATLSLSPGERATLSCRASQSVSSYLAWYQQKPGQAPRLLIYDASNRATGIPARFSGSGSGTDFTLTISSLEPEDFAVYYCQQRSNWPLTFGGGTKVEIK
A word on the EC50 (read off the curve): it is the concentration that produces a half-maximal response. For B4, the “EC50 (read off the curve)” value in assay [6] is around 0.03 µg/mL.

B5: recombinant 0304 antibody of which subclass is IgG4 (antibody, V domains shown)
VH: QVQLVQSGAEMKKPGASVKVSCKTSGYTFTNYKINWVRQAPGQGLEWMGWMNPDTDSTGYPQKFQGRVTMTRNTSISTAYMELSSLRSEDTAVYYCARSYGSGSYYRDYYYGMDVWGQGTTVTVSS
VL: EIVLTQSPATLSLSPGERATLSCRASQSVSSYLAWYQQKPGQAPRLLIYDASNRATGIPARFSGSGSGTDFTLTISSLEPEDFAVYYCQQRSNWPLTFGGGTKVEIK
Turning to B5, in assay [6], the “EC50 (read off the curve)” value was around 0.03 µg/mL.

B6: human anti-TRAIL-R2 monoclonal antibody L-30-10 (antibody, IgG1, V domains shown)
VH: QLQLQESGPGLVKPSETLSLTCTVSGGSISSRSNYWGWIRQPPGKGLEWIGNVYYRGSTYYNSSLKSRVTISVDTSKNQFSLKLSSVTVADTAVYYCARLSVAEFDYWGQGILVTVSS
VL: EIVLTQSPATLSLSPGERATLSCRASQSVSSFLAWYQQKPGQAPRLLIYDASNRATGSPARFSGSGSGTDFTLTISSLEPEDFAVYYCQQRSDWPLTFGPGTKVDIK
notes: Hybridoma FERM BP-7700 / BP-7769
B6: in assay [4], the “LD50, Jurkat cells, 48 h” value came out at 0.13 µg/mL and the “LD50, U251 cells, 48 h” value stood at 0.17 µg/mL. Further, in assay [2], the “LD50, Colo205 cells, 48 h” value came to 0.1 µg/mL and the “LD50, normal human hepatocytes, 24 h” value turned out to be 24 µg/mL. Further, in assay [5], the Kd was 2.35 nM, the off-rate constant (koff) amounted to 0.00144 s⁻¹ and the kon is 613000 M⁻¹ s⁻¹.

B7: human anti-TRAIL-R2 monoclonal antibody 0304 (from the hybridoma) (antibody, IgG4, V domains shown)
VH: QVQLVQSGAEMKKPGASVKVSCKTSGYTFTNYKINWVRQAPGQGLEWMGWMNPDTDSTGYPQKFQGRVTMTRNTSISTAYMELSSLRSEDTAVYYCARSYGSGSYYRDYYYGMDVWGQGTTVTVSS
VL: EIVLTQSPATLSLSPGERATLSCRASQSVSSYLAWYQQKPGQAPRLLIYDASNRATGIPARFSGSGSGTDFTLTISSLEPEDFAVYYCQQRSNWPLTFGGGTKVEIK
notes: IgG4, human kappa light chain
With B7, in assay [2], the “LD50, Colo205 cells, 48 h” value was found to be 0.02 µg/mL and the “LD50, normal human hepatocytes, 24 h” value was 0.002 µg/mL. Also, in assay [3], the binding result is recorded as “no binding”.
